Experimental data taken from publication PMC7954794, “Protein context shapes the specificity of SH3 domain-mediated interactions in vivo” (Nature Communications, 2021).

B1: HSE1 (protein, UniProt P38753 2-452, looked up)
Class E vacuolar …: SSSAIKIRNALLKATDPKLRSDNWQYILDVCDLVKEDPEDNGQEVMSLIEKRLEQQDANVILRTLSLTVSLAENCGSRLRQEISSKNFTSLLYALIESHSVHITLKKAVTDVVKQLSDSFKDDPSLRAMGDLYDKIKRKAPYLVQPNVPEKHNMSTQADNSDDEELQKALKMSLFEYEKQKKLQEQEKESAEVLPQQQQQHQQQNQAPAHKIPAQTVVRRVRALYDLTTNEPDELSFRKGDVITVLEQVYRDWWKGALRGNMGIFPLNYVTPIVEPSKEEIEKEKNKEAIVFSQKTTIDQLHNSLNAASKTGNSNEVLQDPHIGDMYGSVTPLRPQVTRMLGKYAKEKEDMLSLRQVLANAERSYNQLMDRAANAHISPPVPGPALYAGMTHANNTPVMPPQRQSYQSNEYSPYPSNLPIQHPTNSANNTPQYGYDLGYSVVSQPPPGYEQ
B2: HOF1 (protein, UniProt Q05080 1-669, looked up)
Cytokinesis protein 2: MSYSYEACFWDPNDNGVNILLGHISQGIRSCDSMILFFKQRSELEKDYARRLGAITGKLDKDIGTNMDYGKLNETFNVVLSVEKARAQSHSKQSEILFRQIYTDTKAFAANLQARYTTLSGKIERLRMDKFNKKKGCEVLQKKLQDAQIRFRDLQLNENNMIGAKRVEHNKRELLKWESNSQEYKVQLDVLKQEYKASQKFWIHEWAQLSCELQEMENARISFLQSKLQQFATSSMETYILEQTKMDMLTNHLNSFTAADEISTFSKENGTGRLKHKTSKGDMNSSANWAQMSSISTTSKKTESYMDNIRKLSSQLKETENKRKLASIDKYEKPLPSPEVTMATQFRNSTPVIRNETKVVANPTLSLRSSPVQLQSNVDDSVLRQKPDKPRPIVGEEQLKPDEDSKNPDEKGLMVHKRNQSLSSPSESSSSNPTDFSHIKKRQSMESMTTSVSSMANSIDDSQRFAKSWNSSNRKRKSMSHLQVPSSASSRSDDGGRTPNSAHNLNEDDYNTRRDTSTSTILFKPPVAVRGTSRGHTHRQSMIMQDSSNPIEDALYEMERIQSSSKPGTKTGNIMDERGVVRDRGITVTLPIVTSEGFPVIEYAKAMYPLIGNEAPGLANFHKGDYLLITEIVNKDWYKGEVYDNDRIDRNHRIGLIPYNFIQLLHQGL
B3: LSB1 (protein, UniProt P53281 2-241, looked up)
LAS seventeen-binding protein …: SASLVNRSLKNIRNELEFLKESNVISGDIFELINSKLPEKWDGNQRSPQNADTEEYVEALYDFEAQQDGDLSLKTGDKIQVLEKISPDWYRGKSNNKIGIFPANYVKPAFTRSASPKSAEAASSSTVSRPSVPPPSYEPAASQYPSQQVSAPYAPPAGYMQAPPPQQQQAPLPYPPPFTNYYQQPQQQYAPPSQQAPVEAQPQQSSGASSAFKSFGSKLGNAAIFGAGSAIGSDIVNSIF

tested on: growth of yeast strains under 51 stress conditions; assay: Growth assays in 51 stress conditions (Fig. 1E-F, S2D, S5B); format: cell-based, Saccharomyces cerevisiae; parameters: key to Growth (Fig. S2D) / growth of ABP1 SH3-swapped strains in stress condition: log2 colony size, average of median per strain (growth score); conditions: Bathophenanthroline.0.1uM; ABP1 SH3-swapped strains
Method in brief: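 Yeast WT, SH3-deleted, KO, SH3-swapped and SH3-shuffled strains pinned in 1536 format, 12 replicates each; pregrown on YPD 2 days at 30 °C, then replicated onto 51 media at 37 °C and imaged every 2 h. Growth score = mean of per-plate median log2 colony size at 74 h.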

Molecule	Growth (Fig. S2D)
B1	10.8649
B2	10.8727
B3	10.7989

same assay, conditions: Bathophenanthroline.10uM; ABP1 SH3-swapped strains

Molecule	Growth (Fig. S2D)
B1	10.6324
B2	10.6716
B3	10.6305

same assay, conditions: Bathophenanthroline.1uM; ABP1 SH3-swapped strains

Molecule	Growth (Fig. S2D)
B1	10.7994
B2	10.8166
B3	10.7471

same assay, conditions: CaCl2.100mM; ABP1 SH3-swapped strains

Molecule	Growth (Fig. S2D)
B1	10.826
B2	10.8864
B3	10.8093

same assay, conditions: CaCl2.250mM; ABP1 SH3-swapped strains

Molecule	Growth (Fig. S2D)
B1	10.8072
B2	10.8461
B3	10.7989

same assay, conditions: CaCl2.500mM; ABP1 SH3-swapped strains

Molecule	Growth (Fig. S2D)
B1	10.2874
B2	10.3385
B3	10.2904

same assay, conditions: Caffein.10mM; ABP1 SH3-swapped strains

Molecule	Growth (Fig. S2D)
B1	10.0363
B2	10.1794
B3	10.1077

same assay, conditions: Caffein.2mM; ABP1 SH3-swapped strains

Molecule	Growth (Fig. S2D)
B1	11.0184
B2	11.0235
B3	10.9656

same assay, conditions: CdCl2.100uM; ABP1 SH3-swapped strains

Molecule	Growth (Fig. S2D)
B1	9.591
B2	9.561
B3	9.41

same assay, conditions: CdCl2.10uM; ABP1 SH3-swapped strains

Molecule	Growth (Fig. S2D)
B1	10.9135
B2	10.9284
B3	10.8732

same assay, conditions: CdCl2.50uM; ABP1 SH3-swapped strains

Molecule	Growth (Fig. S2D)
B1	9.882
B2	9.924
B3	9.85

same assay, conditions: CuSO4.1mM; ABP1 SH3-swapped strains

Molecule	Growth (Fig. S2D)
B1	10.4158
B2	10.5096
B3	10.4529

same assay, conditions: CuSO4.5mM; ABP1 SH3-swapped strains

Molecule	Growth (Fig. S2D)
B1	7.9665
B2	8.102
B3	7.9447

same assay, conditions: Cycloheximide.0.05.uM; ABP1 SH3-swapped strains

Molecule	Growth (Fig. S2D)
B1	11.0571
B2	11.0987
B3	11.0938

same assay, conditions: Cycloheximide.0.2.uM; ABP1 SH3-swapped strains

Molecule	Growth (Fig. S2D)
B1	10.6529
B2	10.6706
B3	10.6171

same assay, conditions: Cycloheximide.0.5.uM; ABP1 SH3-swapped strains

Molecule	Growth (Fig. S2D)
B1	10.099
B2	10.177
B3	10.0964

same assay, conditions: DMSO.2.; ABP1 SH3-swapped strains

Molecule	Growth (Fig. S2D)
B1	11.0462
B2	11.0794
B3	11.0559

same assay, conditions: DMSO.6.; ABP1 SH3-swapped strains

Molecule	Growth (Fig. S2D)
B1	9.883
B2	9.956
B3	9.9059

same assay, conditions: DMSO.8.; ABP1 SH3-swapped strains

Molecule	Growth (Fig. S2D)
B1	9.238
B2	9.269
B3	9.2023

same assay, conditions: Ethanol.2.; ABP1 SH3-swapped strains

Molecule	Growth (Fig. S2D)
B1	10.7698
B2	10.828
B3	10.7659

same assay, conditions: Ethanol.6.; ABP1 SH3-swapped strains

Molecule	Growth (Fig. S2D)
B1	10.2684
B2	10.3088
B3	10.2982

same assay, conditions: Ethanol.8.; ABP1 SH3-swapped strains

Molecule	Growth (Fig. S2D)
B1	10.106
B2	10.1098
B3	10.0154

same assay, conditions: Galactose.2.; ABP1 SH3-swapped strains

Molecule	Growth (Fig. S2D)
B1	10.7486
B2	10.8257
B3	10.7736

same assay, conditions: Glycerol.2.; ABP1 SH3-swapped strains

Molecule	Growth (Fig. S2D)
B1	9.782
B2	9.711
B3	9.808

same assay, conditions: Hydroxyurea.25mM; ABP1 SH3-swapped strains

Molecule	Growth (Fig. S2D)
B1	10.7604
B2	10.8274
B3	10.7374

same assay, conditions: Hygromycin.190uM; ABP1 SH3-swapped strains

Molecule	Growth (Fig. S2D)
B1	10.981
B2	11.0188
B3	11.0084

same assay, conditions: Hygromycin.19uM; ABP1 SH3-swapped strains

Molecule	Growth (Fig. S2D)
B1	10.9309
B2	11.0238
B3	10.9924

same assay, conditions: Hygromycin.95uM; ABP1 SH3-swapped strains

Molecule	Growth (Fig. S2D)
B1	11.0429
B2	11.0846
B3	10.9928

same assay, conditions: MMS.0.004.; ABP1 SH3-swapped strains

Molecule	Growth (Fig. S2D)
B1	11.0045
B2	10.9957
B3	10.965

same assay, conditions: MMS.0.02.; ABP1 SH3-swapped strains

Molecule	Growth (Fig. S2D)
B1	10.6778
B2	10.7428
B3	10.7457

same assay, conditions: MMS.0.04.; ABP1 SH3-swapped strains

Molecule	Growth (Fig. S2D)
B1	10.0151
B2	9.974
B3	10.0868

same assay, conditions: Menadione.100uM; ABP1 SH3-swapped strains

Molecule	Growth (Fig. S2D)
B1	10.5782
B2	10.6873
B3	10.5379

same assay, conditions: Menadione.200uM; ABP1 SH3-swapped strains

Molecule	Growth (Fig. S2D)
B1	10.4179
B2	10.4637
B3	10.4102

same assay, conditions: Menadione.50uM; ABP1 SH3-swapped strains

Molecule	Growth (Fig. S2D)
B1	10.792
B2	10.8466
B3	10.7973

same assay, conditions: NaCl.0.25M; ABP1 SH3-swapped strains

Molecule	Growth (Fig. S2D)
B1	10.7546
B2	10.8422
B3	10.8176

same assay, conditions: NaCl.1M; ABP1 SH3-swapped strains

Molecule	Growth (Fig. S2D)
B1	9.884
B2	9.66
B3	9.837

same assay, conditions: Nitroquinoline.10uM; ABP1 SH3-swapped strains

Molecule	Growth (Fig. S2D)
B1	10.6974
B2	10.7373
B3	10.6531

same assay, conditions: Nitroquinoline.50uM; ABP1 SH3-swapped strains

Molecule	Growth (Fig. S2D)
B1	10.5671
B2	10.5646
B3	10.6066

same assay, conditions: Nystatin.0.01uM; ABP1 SH3-swapped strains

Molecule	Growth (Fig. S2D)
B1	11.0224
B2	10.9834
B3	10.9737

same assay, conditions: Nystatin.0.1uM; ABP1 SH3-swapped strains

Molecule	Growth (Fig. S2D)
B1	11.0326
B2	10.9984
B3	10.9631

same assay, conditions: Raffinose.2.; ABP1 SH3-swapped strains

Molecule	Growth (Fig. S2D)
B1	11.0272
B2	11.035
B3	11.0015

same assay, conditions: Rapamycin.10nM; ABP1 SH3-swapped strains

Molecule	Growth (Fig. S2D)
B1	9.925
B2	9.895
B3	9.7845

same assay, conditions: Rapamycin.50nM; ABP1 SH3-swapped strains

Molecule	Growth (Fig. S2D)
B1	9.396
B2	9.528
B3	9.381

same assay, conditions: SC.pH3; ABP1 SH3-swapped strains

Molecule	Growth (Fig. S2D)
B1	10.4058
B2	10.4278
B3	10.3983

same assay, conditions: SC.pH6; ABP1 SH3-swapped strains

Molecule	Growth (Fig. S2D)
B1	10.9649
B2	10.9986
B3	10.9866

same assay, conditions: SDS.0.01.; ABP1 SH3-swapped strains

Molecule	Growth (Fig. S2D)
B1	10.9823
B2	11.0079
B3	10.9788

same assay, conditions: SDS.0.02.; ABP1 SH3-swapped strains

Molecule	Growth (Fig. S2D)
B1	10.9972
B2	11.0441
B3	10.9881

same assay, conditions: SDS.0.05.; ABP1 SH3-swapped strains

Molecule	Growth (Fig. S2D)
B1	10.8418
B2	10.886
B3	10.872

same assay, conditions: Sorbitol.10mM; ABP1 SH3-swapped strains

Molecule	Growth (Fig. S2D)
B1	11.0121
B2	11.0139
B3	11.0061

same assay, conditions: Sorbitol.1mM; ABP1 SH3-swapped strains

Molecule	Growth (Fig. S2D)
B1	11.0602
B2	11.1055
B3	11.049

same assay, conditions: Sorbitol.5mM; ABP1 SH3-swapped strains

Molecule	Growth (Fig. S2D)
B1	10.8937
B2	10.9626
B3	10.9179
